The values that follow come from IntAct's records for PubMed 29039417.

B1: Isoform 2 of Bardet-Biedl syndrome 7 protein (Homo sapiens), Q8IWZ6-2 (parent)
chain: MDLILNRMDYLQVGVTSQKTMKLIPASRHRATQKVVIGDHDGVVMCFGMKKGEAAAVFKTLPGPKIARLELGGVINTPQEKIFIAAASEIRGFTKRGKQFLSFETNLTESIKAMHISGSDLFLSASYIYNHYCDCKDQHYYLSGDKINDVICLPVERLSRITPVLACQDRVLRVLQGSDVMYAVEVPGPPTVLALHNGNGGDSGEDLLFGTSDGKLALIQITTSKPVRKWEIQNEKKRGGILCIDSFDIVGDGVKDLLVGRDDGMVEVYSFDNANEPVLRFDQMLSESVTSIQGGCVGKDSYDEIVVSTYSGWVTGLTTEPIHKESGPGEELKINQEMQNKISSLRNELEHLQYKVLQERENYQQSSQSSKAKSAVPSFGINDKFTLNKDDASYSLILEVQTAIDNVLIQSDVPIDLLDVDKNSAVVSFSSCDSESNDNFLLATYRCQADTTRLELKIRSIEGQYGTLQAYVTPRIQPKTCQVRQYHIKPLSLHQRTHFIDHDRPMNTLTLTGQFSFAEVHSWVVFCLPEVPEKPPAGECVTFYFQNTFLDTQLESTYRKGEGVFKSDNISTISILKDVLSKEATKRKINLNISYEINEVSVKHTLKLIHPKLEYQLLLAKKVQLIDALKELQIHEGNTNFLIPEYHCILEEADHLQEEYKKQPAHLERLYG
partner: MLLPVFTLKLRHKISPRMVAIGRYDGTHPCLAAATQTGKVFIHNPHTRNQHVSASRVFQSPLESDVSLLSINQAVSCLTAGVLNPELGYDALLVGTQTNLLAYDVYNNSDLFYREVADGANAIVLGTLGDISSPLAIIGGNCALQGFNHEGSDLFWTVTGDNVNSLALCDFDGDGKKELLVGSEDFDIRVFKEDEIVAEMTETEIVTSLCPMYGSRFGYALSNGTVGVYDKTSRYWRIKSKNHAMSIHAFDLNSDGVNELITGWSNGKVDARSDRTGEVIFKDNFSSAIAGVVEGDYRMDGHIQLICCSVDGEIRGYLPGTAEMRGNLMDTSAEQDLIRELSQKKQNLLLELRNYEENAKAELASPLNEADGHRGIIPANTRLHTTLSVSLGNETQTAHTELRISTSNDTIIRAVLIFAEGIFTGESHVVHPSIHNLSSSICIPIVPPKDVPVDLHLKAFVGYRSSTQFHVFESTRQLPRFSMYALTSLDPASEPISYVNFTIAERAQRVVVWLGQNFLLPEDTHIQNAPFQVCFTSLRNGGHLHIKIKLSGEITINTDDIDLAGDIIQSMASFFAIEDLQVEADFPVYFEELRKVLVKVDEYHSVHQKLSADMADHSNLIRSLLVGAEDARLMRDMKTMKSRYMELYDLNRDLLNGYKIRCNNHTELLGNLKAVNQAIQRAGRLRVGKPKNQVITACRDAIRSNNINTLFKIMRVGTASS

The variants in the assay derive from B1. The conditions noted are these: with bbs2_human BBS2, Q9BXC9.
As to L656K, the “effect of a mutation on the interaction” value was “with no effect”. As for L656E, the entry is “with no effect”; as for L656A, “with no effect”; as for L625K, “with no effect”.

As to L625E, the “effect of a mutation on the interaction” value is recorded as “with no effect”.

In the case of L625A, the “effect of a mutation on the interaction” value is recorded as “with no effect”. Under L606K stands “with no effect”. Under L606E stands “with no effect”; under E652K, “with no effect”; under E652A, “with no effect”.

In the case of K661E, the “effect of a mutation on the interaction” value is “with no effect”. In the case of K661A, the “effect of a mutation on the interaction” value is reported as “with no effect”. Under K612E stands “with no effect”; under K612A, “with no effect”. Under K621E stands “with no effect”; under K621A, “with no effect”; under H610K, “with no effect”.

As for H610A, the “effect of a mutation on the interaction” value is reported as “with no effect”. Under H610E stands “with no effect”; under K630A, “with no effect”. As for K630E, the entry is “with no effect”. With Q633A, the “effect of a mutation on the interaction” value was “with no effect”.

Q633E: the “effect of a mutation on the interaction” value is “with no effect”. As for Q633K, the entry is “with no effect”; as for K662E, “with no effect”; as for K662A, “with no effect”. As for Y615E, the entry is “with no effect”; as for Y615A, “with no effect”; as for Y615K, “with no effect”.

L650K: the “effect of a mutation on the interaction” value was “with no effect”. Under L650E stands “with no effect”; under L650A, “with no effect”; under I634K, “with no effect”. Under I634A stands “with no effect”; under I634E, “with no effect”.

Consider A620E, for which the “effect of a mutation on the interaction” value is “with no effect”. For the variant A620K, the “effect of a mutation on the interaction” value is on record as “with no effect”. As to D627K, the “effect of a mutation on the interaction” value was “with no effect”. Consider D627E, for which the “effect of a mutation on the interaction” value is reported as “with no effect”. Under D627A stands “with no effect”; under L670K, “with no effect”. L670A: the “effect of a mutation on the interaction” value is “with no effect”.

For L670E, the “effect of a mutation on the interaction” value is “with no effect”.

As to K607A, the “effect of a mutation on the interaction” value is “with no effect”. Under K607E stands “with no effect”; under Y671K, “with no effect”; under Y671E, “with no effect”. As for Y671A, the entry is “with no effect”. Under P644A stands “with no effect”; under P644K, “with no effect”. For P644E, the “effect of a mutation on the interaction” value is “with no effect”. As for E658A, the entry is “with no effect”. Take E658K: the “effect of a mutation on the interaction” value is given as “with no effect”. As for Y660K, the entry is “with no effect”; as for Y660A, “with no effect”. Under Y660E stands “with no effect”; under L619K, “with no effect”. As for L619E, the entry is “with no effect”; as for L619A, “with no effect”.

As for H655K, the “effect of a mutation on the interaction” value is listed as “with no effect”. H655A: the “effect of a mutation on the interaction” value is “with no effect”.

Regarding H655E, the “effect of a mutation on the interaction” value was “with no effect”.

Consider F641A, for which the “effect of a mutation on the interaction” value is “with no effect”. As for F641E, the entry is “with no effect”; as for F641K, “with no effect”; as for A628K, “with no effect”. As for A628E, the entry is “with no effect”; as for I609A, “with no effect”.

Turning to I609K, the “effect of a mutation on the interaction” value is on record as “with no effect”.

As for I609E, the “effect of a mutation on the interaction” value is on record as “with no effect”. Under T639K stands “with no effect”; under T639E, “with no effect”; under T639A, “with no effect”. Regarding E645A, the “effect of a mutation on the interaction” value is given as “with no effect”. As for E645K, the entry is “with no effect”.

As for H635E, the “effect of a mutation on the interaction” value is recorded as “with no effect”. Under H635K stands “with no effect”; under H635A, “with no effect”; under E614K, “with no effect”. Under E614A stands “disrupting interaction strength”. Under Q616E stands “with no effect”; under Q616K, “with no effect”. Turning to Q616D, the “effect of a mutation on the interaction” value is reported as “disrupting interaction strength”. Under Q616A stands “with no effect”; under I649A, “with no effect”. As for I649K, the entry is “with no effect”; as for I649E, “with no effect”. Under C648E stands “with no effect”; under C648A, “with no effect”. Consider C648K, for which the “effect of a mutation on the interaction” value is given as “with no effect”. Under P664E stands “with no effect”; under P664K, “with no effect”.
